Target: T1, TLR4 (Homo sapiens, UniProt O00206+Q9Y6Y9)
T1 construct: host or cells: HEK293 stably transfected with TLR4 (HEK/TLR4)
Experiment: HEK cell activation assay: extracellular IL-8 by ELISA
Type: cell-based
Description: Conditioned insect cell culture medium containing soluble, polyhistidine-tagged recombinant wild-type (wt) or C95Y mutant MD-2 were generated according to the method of Viriyakosol et al. (2001). A human embryonic kidney cell line (HEK293) that stably expresses TLR4 (HEK/TLR4), but lacks both CD14 and MD-2 (Yang et al., 2000), was used to evaluate the effect of MD-2 on the ability of lipooligosaccharide (LOS) to interact with TLR4 and promote activation.
FIG. 1 depicts the expression and bioactivity of recombinant MD-2-His6. FIGS. 1A and 1B depict SDS-PAGE immunoblots of control culture medium (FIG. 1A, lane 1) or medium from HiFive cells infected with recombinant baculovirus encoding wt (FIG. 1A, lane 2; FIG. 1B, lanes 1–3) or C95Y MD-2 (FIG. 1B, lane 4). MD-2 was detected using anti-(His)4 antibody. All samples represent 1 μl of culture medium except B, lanes 2 and 3, which represent 0.3 and 0.1 μl and A, lane 3, which represents molecular weight markers. In FIG. 1C, HEK/TLR4 cells were incubated in HEPES-buffered HBSS+/0.1% albumin with [^14C]-LOSagg (3 ng/ml)+/−LBP (30 ng/ml) and/or (60 μl) culture medium containing wt MD-2 (MD-2) (open bars); LOSagg+LBP and sCD14 (250 ng/ml)+/−wt (closed bars) or C95Y “MD-2” (striped bars), or [^14C]-LOS-sCD14 (2 ng LOS/ml)+/−wt or C95Y “MD-2” (closed bars). After overnight incubation, extracellular IL-8 was assayed by ELISA. In FIG. 1D, HEK/TLR4 cells were incubated with increasing amounts of wt (▪) or C95Y (◯) MD-2+[^14C]-LOS-sCD14 (2 ng/ml) and cell activation measured. Results shown are from one experiment (duplicate samples) representative of four independent experiments.
In FIG. 2, a bioactive complex (Mr˜25,000) containing MD-2 and [^14C]-LOS is formed by incubation of [^14C]-LOS-sCD14 with wt, but not C95Y, MD-2. In FIG. 2A, dialyzed control insect cell medium (◯) or medium containing wt (♦) or C95Y ( ? ) MD-2 was incubated for 30 min, 37° C. with (1:1 vol/vol) [^14C]-LOS-sCD14 in HBSS+, 10 mM HEPES and chromatographed on Sephacryl S100. Column fractions were analyzed for [^14C]-LOS. Identical results were obtained in analytical (5 ng [^14C]-LOS/ml+200 μl culture medium) or more preparative runs (reagents concentrated 20×). In FIG. 2B, peak fractions (Mr˜25,000) from treatment of [^14C]-LOS-sCD14 with wt MD-2 (FIG. 2A) were re-chromatographed on S100 in HBSS+, 10 mM HEPES without HSA; recovery of [^14C]-LOS was >80%. In FIG. 2C, HEK (□) or HEK/TLR4 (▪) were incubated overnight with the indicated amounts of LOS added as purified Mr˜25,000 (LOS-MD-2) complex. Cell activation was measured by IL-8 accumulation. Results shown correspond to one experiment, in duplicate, representative of three similar experiments. FIGS. 2D and 2E depict adsorption and elution of bioactive Mr˜25,000 complex to HisBind resin. Peak fractions of the purified complex (FIG. 2B; 10 ng [^14C]-LOS) were dialyzed against PBS and incubated with HisBind resin (0.125 ml) for 1 hr at 25° C. and processed as described in Methods. Non-adsorbed (Flow-thru) and adsorbed material eluted with 200 mM imidazole were precipitated with trichloroacetic acid to concentrate sample for SDS-PAGE/immunoblot analysis. […]
Purified [^14C]-LOSagg or [^14C]-LOS-sCD14 (3 ng LOS/ml)+/−indicated proteins (30 ng/ml LBP, 250 ng/ml sCD14, 60 μl culture medium) were incubated at 37° C. for 30 min. After this incubation, samples were analyzed by gel filtration chromatography to monitor formation of [^14C]-LOS-MD-2 and by incubation with HEK/TLR4 cells to measure cell activation. […]

T1 sequence (O00206 24-839, one chain of several): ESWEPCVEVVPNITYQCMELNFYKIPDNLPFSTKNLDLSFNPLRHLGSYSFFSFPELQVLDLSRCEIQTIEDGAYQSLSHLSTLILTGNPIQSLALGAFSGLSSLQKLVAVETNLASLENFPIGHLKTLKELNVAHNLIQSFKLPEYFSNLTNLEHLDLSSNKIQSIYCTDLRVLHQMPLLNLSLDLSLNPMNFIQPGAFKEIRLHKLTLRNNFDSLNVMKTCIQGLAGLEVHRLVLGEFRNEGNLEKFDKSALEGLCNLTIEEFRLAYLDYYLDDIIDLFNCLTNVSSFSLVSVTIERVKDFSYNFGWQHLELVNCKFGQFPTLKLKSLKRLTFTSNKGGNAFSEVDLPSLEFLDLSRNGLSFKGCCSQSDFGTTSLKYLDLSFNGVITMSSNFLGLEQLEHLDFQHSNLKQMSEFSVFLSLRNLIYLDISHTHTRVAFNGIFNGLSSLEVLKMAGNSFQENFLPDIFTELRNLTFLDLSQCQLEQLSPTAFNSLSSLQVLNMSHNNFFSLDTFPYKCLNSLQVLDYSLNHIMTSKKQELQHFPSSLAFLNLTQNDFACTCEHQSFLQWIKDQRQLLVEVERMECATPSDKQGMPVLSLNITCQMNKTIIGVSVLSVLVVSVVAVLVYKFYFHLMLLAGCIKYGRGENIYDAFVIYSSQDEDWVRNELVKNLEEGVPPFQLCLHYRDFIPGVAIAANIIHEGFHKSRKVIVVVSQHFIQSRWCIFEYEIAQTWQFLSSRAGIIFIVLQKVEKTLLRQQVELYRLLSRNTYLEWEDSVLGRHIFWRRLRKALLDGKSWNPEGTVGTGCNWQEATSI

B1: wt MD-2: soluble polyhistidine-tagged recombinant wild-type MD-2 in conditioned insect cell culture medium (protein)
chain: QKQYWVCNSSDASISYTYCDKMQYPISINVNPCIELKRSKGLLHIFYIPRRDLKQLYFNLYITVNTMNLPKRKEVICRGSDDDYSFCRALKGETVNTTISFSFKGIKFSKGKYKCVVEAISGSPEEMLFCLEFVILHQPNSNHHHHHH
MD-2 concentration producing maximum cell activation (HEK/TLR4 with [^14C]-LOS-sCD14 (2 ng/ml)): 30 ng/mL
activation of HEK/TLR4 cells by LOS-sCD14 (or LOSagg+LBP+sCD14) on addition of medium containing MD-2 (IL-8 release, LOS-sCD14 2 ng LOS/ml): robust activation
inhibition of activation of HEK/TLR4 by [^14C]-LOS-MD-2 by added MD-2 ([^14C]-LOS-MD-2 0.3 ng/ml, increasing amounts of conditioned medium): dose-dependent inhibition

From patent US7164008B2, “Isolated complexes of endotoxin and MD-2” (priority 2003, dated 2007)
